Assay results as given in PMC7033585.

Key:
[1] = molecular target: CdiI536 (Escherichia coli) (UniProt Q0T964); settings: cited from earlier work
[2] = molecular target: YeeF-CT^H581A, C-terminal toxic domain of YeeF (Ile527 to Gly669) with the point mutation H581A (Bacillus subtilis subsp. spizizenii str. W23) (UniProt O31506); assay: AUC; sedimentation velocity of each protein alone at 8, 16 and 32 μM; 20 mM HEPES pH 7.5, 150 mM NaCl; 40,000 rpm, 25°C; c(s) fit with SEDFIT
[3] = molecular target: YeeF-CT^H581A, point variant of the C-terminal toxic domain of YeeF (Bacillus subtilis subsp. spizizenii str. W23) (UniProt O31506); assay: as above
[4] = molecular target: YeeF-CT^H581A, point variant of the C-terminal toxic domain of YeeF (Bacillus subtilis subsp. spizizenii str. W23) (UniProt O31506); assay: ITC; YeeF-CT^(M) 10 μM in the cell, YezG 300 μM in the syringe; 25°C; 20 mM HEPES pH 7.5, 150 mM NaCl; two binding site model
[5] = molecular target: YeeF-CT^H581A, point variant of the C-terminal toxic domain of YeeF (Bacillus subtilis subsp. spizizenii str. W23) (UniProt O31506); assay: AUC; sedimentation velocity of mixtures: YeeF-CT fixed, increasing YezG, incubated at 4°C for 1 h beforehand; 20 mM HEPES pH 7.5, 150 mM NaCl; 25°C

CdiA-CT536 CT (from UniProt Q0T963)
Kd [1]: 26.4 nM

YeeF-CT^H581A, C-terminal toxic domain of YeeF (Ile527 to Gly669) with the point mutation H581A (from UniProt O31506 527-669) (domain or fragment)
stoichiometry N [2]: 2

YeeF-CT^H581A, point variant of the C-terminal toxic domain of YeeF (from UniProt O31506 527-669) (domain or fragment)
stoichiometry N [3]: 2

YezG immunity protein (from UniProt C0H3X4 1-151) (natural protein)
KD1 (first site of the two-site fit) [4]: 29.4 nM
KD2 (second site of the two-site fit) [4]: 91.7 nM
stoichiometry N (YezG monomers per YeeF-CT dimer) [5]: 2
